Consider 66 substances from the array DNA melting data of Ke et al..

A short description of the data set: melting temperature; melt of duplexes. Conditions: sodium 0.0675 M; strand 1 µM.
Regarding “CGACGTGCAAGATGTGCTG+CAGCACATATCGCACGTCG ((((((((.(.((((((((+)))))))).).))))))))”, the midpoint of thermal melting (Tm) amounted to 50.3 °C.
Regarding “CGACGTGCTTAATGTGCTG+CAGCACATTTAGCACGTCG (((((((((.(((((((((+))))))))).)))))))))”, the Tm is 55.5 °C.
On to “CGACGTGCTGGATGTGCTG+CAGCACATCTCGCACGTCG ((((((((..(((((((((+)))))))))..))))))))”, for which the Tm came out at 55.3 °C.
In the case of “CGACGTGCTTAATGTGCTG+CAGCACATTGAGCACGTCG (((((((((.(((((((((+))))))))).)))))))))”, the Tm came to 56.9 °C.
The same measure for “CGACGTGCTTCATGTGCTG+CAGCACATGAAGCACGTCG (((((((((((((((((((+)))))))))))))))))))”: 64.4 °C; for “CGACGTGCAGAATGTGCTG+CAGCACATGGTGCACGTCG (((((((((..((((((((+))))))))..)))))))))”: 52.6 °C.
The same measure for “CGACGTGCACGATGTGCTG+CAGCACATCTTGCACGTCG (((((((((.(((((((((+))))))))).)))))))))”: 55.7 °C.
Regarding “CGACGTGCTCAATGTGCTG+CAGCACATCCAGCACGTCG (((((((((..((((((((+))))))))..)))))))))”, the Tm is 50.5 °C.
“CGACGTGCAGGATGTGCTG+CAGCACATCACGCACGTCG ((((((((..(((((((((+)))))))))..))))))))”: the Tm amounted to 55.9 °C.
For the substance “CGACGTGCTACATGTGCTG+CAGCACATAGAGCACGTCG (((((((((..((((((((+))))))))..)))))))))”, the melting temperature (Tm) is 52.5 °C.
As to “CGACGTGCGTAATGTGCTG+CAGCACATAGAGCACGTCG ((((((((...((((((((+))))))))...))))))))”, the Tm was found to be 54.4 °C.
In the case of “CGACGTGCGTAATGTGCTG+CAGCACATGCCGCACGTCG (((((((((..((((((((+))))))))..)))))))))”, the Tm was 54.9 °C.
As to “CGACGTGCGCGATGTGCTG+CAGCACATTACGCACGTCG (((((((((..((((((((+))))))))..)))))))))”, the midpoint of thermal melting (Tm) came out at 54.9 °C.
Next, “CGACGTGCCGAATGTGCTG+CAGCACATCTTGCACGTCG ((((((((...((((((((+))))))))...))))))))”: 48.8 °C.
Turning to “CGACGTGCACAATGTGCTG+CAGCACATTCTGCACGTCG (((((((((.(((((((((+))))))))).)))))))))”, the midpoint of thermal melting (Tm) is 51.7 °C.
In the case of “CGACGTGCCCTATGTGCTG+CAGCACATCTTGCACGTCG ((((((((...((((((((+))))))))...))))))))”, the Tm worked out at 47.3 °C.
With “CGACGTGCTTAATGTGCTG+CAGCACATCCGGCACGTCG ((((((((...((((((((+))))))))...))))))))”, the Tm is 49 °C.
Regarding “CGACGTGCCGAATGTGCTG+CAGCACATAAGGCACGTCG (((((((((..((((((((+))))))))..)))))))))”, the Tm is 58 °C.
In the case of “CGACGTGCACGATGTGCTG+CAGCACATCATGCACGTCG (((((((((.(((((((((+))))))))).)))))))))”, the Tm worked out at 55.3 °C.
In the case of “CGACGTGCATCATGTGCTG+CAGCACATATTGCACGTCG (((((((((..((((((((+))))))))..)))))))))”, the Tm was 50.3 °C.
With “CGACGTGCGTAATGTGCTG+CAGCACATTCGGCACGTCG ((((((((..(((((((((+)))))))))..))))))))”, the Tm is 53.1 °C.
The same measure for “CGACGTGCATTATGTGCTG+CAGCACATCAAGCACGTCG ((((((((.(.((((((((+)))))))).).))))))))”: 48.1 °C.
Consider “CGACGTGCAGGATGTGCTG+CAGCACATAACGCACGTCG ((((((((...((((((((+))))))))...))))))))”, for which the Tm came to 50.8 °C.
Regarding “CGACGTGCTCAATGTGCTG+CAGCACATGGGGCACGTCG ((((((((.(.((((((((+)))))))).).))))))))”, the Tm is 55 °C.
The same measure for “CGACGTGCGTCATGTGCTG+CAGCACATGGCGCACGTCG (((((((((.(((((((((+))))))))).)))))))))”: 63.5 °C; for “CGACGTGCTTGATGTGCTG+CAGCACATTTAGCACGTCG (((((((((..((((((((+))))))))..)))))))))”: 52.5 °C; for “CGACGTGCACTATGTGCTG+CAGCACATAACGCACGTCG ((((((((..(((((((((+)))))))))..))))))))”: 46.2 °C.
In the case of “CGACGTGCAATATGTGCTG+CAGCACATTTAGCACGTCG ((((((((.(.((((((((+)))))))).).))))))))”, the Tm was determined as 50.8 °C.
On to “CGACGTGCTCCATGTGCTG+CAGCACATCGTGCACGTCG ((((((((.(.((((((((+)))))))).).))))))))”, for which the Tm came out at 44.7 °C.
The same measure for “CGACGTGCATTATGTGCTG+CAGCACATGCAGCACGTCG ((((((((...((((((((+))))))))...))))))))”: 48.7 °C; for “CGACGTGCCCCATGTGCTG+CAGCACATTAGGCACGTCG (((((((((..((((((((+))))))))..)))))))))”: 52.5 °C.
As to “CGACGTGCAAGATGTGCTG+CAGCACATTAGGCACGTCG ((((((((...((((((((+))))))))...))))))))”, the midpoint of thermal melting (Tm) stood at 51.3 °C.
Consider “CGACGTGCCGGATGTGCTG+CAGCACATATAGCACGTCG ((((((((...((((((((+))))))))...))))))))”, for which the Tm was 49.9 °C.
On to “CGACGTGCTCGATGTGCTG+CAGCACATTGAGCACGTCG ((((((((((.((((((((+)))))))).))))))))))”, for which the Tm is 60.7 °C.
On to “CGACGTGCTCCATGTGCTG+CAGCACATCACGCACGTCG ((((((((...((((((((+))))))))...))))))))”, for which the Tm came to 47 °C.
For the substance “CGACGTGCTTCATGTGCTG+CAGCACATTGCGCACGTCG ((((((((...((((((((+))))))))...))))))))”, the Tm was 46.5 °C.
For the substance “CGACGTGCGACATGTGCTG+CAGCACATGGAGCACGTCG ((((((((..(((((((((+)))))))))..))))))))”, the Tm came out at 63.5 °C.
For “CGACGTGCGATATGTGCTG+CAGCACATCCTGCACGTCG ((((((((...((((((((+))))))))...))))))))”, the Tm was found to be 49.5 °C.
The same measure for “CGACGTGCTTGATGTGCTG+CAGCACATTCAGCACGTCG (((((((((..((((((((+))))))))..)))))))))”: 51.9 °C; for “CGACGTGCCGTATGTGCTG+CAGCACATTAAGCACGTCG ((((((((...((((((((+))))))))...))))))))”: 49.1 °C; for “CGACGTGCTAAATGTGCTG+CAGCACATAACGCACGTCG ((((((((...((((((((+))))))))...))))))))”: 50 °C.
Turning to “CGACGTGCTTTATGTGCTG+CAGCACATGGGGCACGTCG ((((((((...((((((((+))))))))...))))))))”, the Tm is 51 °C.
Next, “CGACGTGCAACATGTGCTG+CAGCACATGCGGCACGTCG ((((((((..(((((((((+)))))))))..))))))))”: 53.5 °C.
For “CGACGTGCATAATGTGCTG+CAGCACATTATGCACGTCG (((((((((((((((((((+)))))))))))))))))))”, the Tm was 61.8 °C.
Take “CGACGTGCAGGATGTGCTG+CAGCACATGCTGCACGTCG ((((((((((.((((((((+)))))))).))))))))))”: the Tm came to 59.6 °C.
The same measure for “CGACGTGCAATATGTGCTG+CAGCACATTATGCACGTCG (((((((((..((((((((+))))))))..)))))))))”: 52.1 °C; for “CGACGTGCTTTATGTGCTG+CAGCACATAATGCACGTCG ((((((((.((((((((((+)))))))))).))))))))”: 55.1 °C; for “CGACGTGCTGTATGTGCTG+CAGCACATCAGGCACGTCG ((((((((...((((((((+))))))))...))))))))”: 51.7 °C.
“CGACGTGCGCAATGTGCTG+CAGCACATGATGCACGTCG ((((((((...((((((((+))))))))...))))))))”: the Tm turned out to be 52.5 °C.
Consider “CGACGTGCGCCATGTGCTG+CAGCACATCAGGCACGTCG ((((((((...((((((((+))))))))...))))))))”, for which the melting temperature (Tm) turned out to be 47.8 °C.
Next, “CGACGTGCGGAATGTGCTG+CAGCACATTCGGCACGTCG ((((((((.((((((((((+)))))))))).))))))))”: 59.9 °C; “CGACGTGCGGTATGTGCTG+CAGCACATCCAGCACGTCG ((((((((.(.((((((((+)))))))).).))))))))”: 55.1 °C; “CGACGTGCCACATGTGCTG+CAGCACATAGTGCACGTCG ((((((((...((((((((+))))))))...))))))))”: 46.9 °C.
Regarding “CGACGTGCAGCATGTGCTG+CAGCACATGCAGCACGTCG ((((((((.((((((((((+)))))))))).))))))))”, the Tm came to 60.8 °C.
As to “CGACGTGCACTATGTGCTG+CAGCACATCTAGCACGTCG ((((((((...((((((((+))))))))...))))))))”, the Tm stood at 42.4 °C.
“CGACGTGCGCCATGTGCTG+CAGCACATTGAGCACGTCG ((((((((.(.((((((((+)))))))).).))))))))”: the Tm was 52.6 °C.
On to “CGACGTGCCCCATGTGCTG+CAGCACATAACGCACGTCG ((((((((...((((((((+))))))))...))))))))”, for which the Tm is 45.7 °C.
For “CGACGTGCGAAATGTGCTG+CAGCACATGGGGCACGTCG ((((((((...((((((((+))))))))...))))))))”, the Tm came out at 52 °C.
Next, “CGACGTGCCGCATGTGCTG+CAGCACATTCAGCACGTCG ((((((((.(.((((((((+)))))))).).))))))))”: 48.9 °C.
On to “CGACGTGCGGAATGTGCTG+CAGCACATCCCGCACGTCG ((((((((((.((((((((+)))))))).))))))))))”, for which the melting temperature (Tm) was 60.3 °C.
Consider “CGACGTGCCGCATGTGCTG+CAGCACATTGGGCACGTCG (((((((((..((((((((+))))))))..)))))))))”, for which the midpoint of thermal melting (Tm) stood at 54.4 °C.
Take “CGACGTGCGGAATGTGCTG+CAGCACATAATGCACGTCG ((((((((...((((((((+))))))))...))))))))”: the Tm worked out at 52 °C.
“CGACGTGCAACATGTGCTG+CAGCACATAAAGCACGTCG ((((((((...((((((((+))))))))...))))))))”: the Tm is 48.9 °C.
The same measure for “CGACGTGCTGCATGTGCTG+CAGCACATGCTGCACGTCG ((((((((.((((((((((+)))))))))).))))))))”: 61.2 °C; for “CGACGTGCAGTATGTGCTG+CAGCACATACAGCACGTCG ((((((((.((((((((((+)))))))))).))))))))”: 57.4 °C; for “CGACGTGCAACATGTGCTG+CAGCACATAACGCACGTCG ((((((((...((((((((+))))))))...))))))))”: 48.2 °C.

What is called Tm is the temperature at the midpoint of the melting transition.
